Data on 4 substances can be found in US20150239961A1.

For experiment [1], the target named is Env on the surface of HIV-1 AE.CM235-infected cells (HIV-1 AE.CM235). Nature of the experiment: cell-based or functional assay.
The target in experiment [2] is Env on the surface of HIV-1 AE.92TH023-infected primary CD4+ T cells (HIV-1 AE.92TH023). Briefly: flow cytometry, Alexa Fluor 488-CH58 with CH90 F(ab), HIV-1-infected CD4+ T cells (FIG. 14B-E). In general terms: Flow cytometry measures light scatter and fluorescence of single cells or particles in a stream.
Experiment [3] addresses Env on the surface of HIV-1 AE.CM235-infected cells (HIV-1 AE.CM235). The description is as above.
The target is the same in experiment [4]. Nature of the experiment: flow cytometry, Alexa Fluor 488-CH58 with unconjugated mAb, 10 µg/ml each, AE.CM235-infected CD4+ T cells.
Experiment [5] deals with Env on the surface of HIV-1 AE.92TH023-infected primary CD4+ T cells (HIV-1 AE.92TH023). Nature of the experiment: flow cytometry, Alexa Fluor 488-CH58 with unconjugated mAb, 10 µg/ml each, AE.92TH023-infected CD4+ T cells.
The target of experiment [6] is recombinant AE.A244 Δ11 gp120 (HIV-1 AE.A244). Nature of the experiment: SPR (BIAcore 3000), mAb captured by anti-human Ig Fc, gp120 in flow.
For experiment [7] the target is unchanged. Nature of the experiment: SPR synergy assay (BIAcore 4000), CH58 immobilized on CM5 chip, mAb-gp120 complex injected.
Experiment [8] addresses HIV-1 AE.A244 gp120 envelope glycoprotein (HIV-1 AE.A244). Briefly: blocking assay on A244 gp120, competitor sCD4.
In experiment [9] the target is HIV-1 B.JRFL gp120 Env (HIV-1 B.JRFL). Briefly: blocking assay on JRFL gp120, competitor b12.
Experiment [10] shares this target. Briefly: blocking assay on JRFL gp120, competitor sCD4.

Consider A32 Fab, for which, in [1], the inhibition of the ADCC activity mediated by 19/20 non-V3 mAbs (ADCC-CM235 assay) was in the range of 73 to 100%.

CH58 (antibody): the % enhancement of CH58 binding in the presence of CH90 F(ab) in experiment [2] was under 10%. The % enhancement of CH58 binding in the presence of CH90 F(ab) in experiment [3] is under 10%. Besides, in [4], the % increase in frequency of infected cells recognized by CH58 and in MFI in the presence of A32 was under 45%; the % increase of CH58 binding in the presence of CH54 is over 20%; the % increase of CH58 binding in the presence of CH57 was over 25%; the % increase of CH58 binding in the presence of CH90 was over 35%. In addition, in experiment [5], the % increase in the frequency of cells recognized by CH58 in the presence of A32, against CH58 alone was over 40%; the % increase in the frequency of cells recognized by CH58 in the presence of CH57, against CH58 alone was over 40%; the % increase in the frequency of cells recognized by CH58 in the presence of CH90, against CH58 alone is over 40%. Moreover, in experiment [6], the dissociation constant Kd (in general, a measure of binding affinity in units of concentration) amounted to 1 nM; the off-rate constant (koff) (in general, the first-order rate constant of dissociation) amounted to 0.00023 s⁻¹; the kon – broadly, a measure of how fast the partners come together – came to 226000 M⁻¹ s⁻¹. In experiment [7], the % increase in binding with gp120 pre-incubated with CH54, against gp120 with murine 16H3 mAb turned out to be 14%; the % increase in binding with gp120 pre-incubated with CH57, against gp120 with murine 16H3 mAb amounted to 59%; the % increase in binding with gp120 pre-incubated with CH90, against gp120 with murine 16H3 mAb worked out at 12%. In [1], the % Max Killing, mAb alone (Luciferase ADCC) was 18.8%; the ADCC EC (3 hr Luciferase ADCC) stood at 9.68 µg/mL; the EC, mAb alone (Luciferase ADCC) stood at 9.13 µg/mL; the PC75, mAb alone (Luciferase ADCC) amounted to 31.4 µg/mL.

The substance A32 (antibody) had a % blocking of sCD4 binding in experiment [8] of 29%. Also, in experiment [6], the Kd was 0.7 nM, the off-rate (koff) turned out to be 0.00015 s⁻¹ and the on-rate (kon) was 223000 M⁻¹ s⁻¹. The same substance registered a % blocking of b12 binding in [9] of 23%. In experiment [1], this substance gave an ADCC EC (3 hr Luciferase ADCC) of 0.003 µg/mL and a maximum % GzB activity (ADCC-CM235 assay) of 16%.

As to VRC-CH31 (antibody), the % blocking of sCD4 binding was determined as 67% in [10] and 97% in experiment [8]. In experiment [9], this substance returned a % blocking of b12 binding of 70%.
